The source of these data is patent publication US10428347B2, “Herbicide-detoxifying enzymes and uses thereof” (priority 2017, dated 2019).

Series [1] is described as follows: Absorbance spectra assay of mecoprop degradation by ChD or CAC. The settings on record: mecoprop 200 mg/L alone (no enzyme), 50 mM HEPES pH 7, one hour at 37° C. The class given is biochemical. The procedure:
(§1) Small scale (1 mL) assays were performed to evaluate the ability of ChD and CAC to degrade MCPA-4 amine or mecoprop.
(§2) MCPA-4 amine and mecoprop have absorbance maxima (Amax) at approximately 230 and 280 nm. […] MCPA-4 amine or mecoprop end product generation is directly proportional to the degradation MCPA-4 amine or mecoprop, respectively.

Series [2] is described as follows: Absorbance spectra assay of MCPA-4 amine degradation by ChD or CAC. The class given is biochemical. The settings on record: MCPA-4 amine 200 mg/L alone (no enzyme), 50 mM HEPES pH 7, one hour at 37° C. The procedure: as §1, §2
The subject of series [3] is soybean plants. In words: Trifoliate damage scoring of soybean treated with SM1-dicamba reaction products. The series is classed as in vivo. Conditions: V1 soybean (Morsoy Xtra), 100 μL reaction product diluted 1:24 with 0.01% SILWET L-77 on trifoliate leaves, 6 plants; Time (hours) 2; scale 0-5. The source says:
These SM1-dicamba degradation products were applied to soybean seedlings (variety, Morsoy Xtra). […] The plants were scored based on trifoliate damage using the scale as described in Table 27.

How the values of series [4] were obtained: A Bacillus subtilis (A64) control reaction, which was supernatant with no SM1 enzyme was performed in parallel. The reactions were incubated at 37° C. with 400 rpm stirring for two hours. Aliquots of the reactions were collected at time 0 (T0), 1 hour, and 2 hours, and frozen at −80° C.
HPLC column (Kinetex® 5 μm C18 100 Å, LC Column 50×4.6 mm) was equilibrated for 15 minutes with 35% acetonitrile and 65% 10 mM ammonium acetate with 0.1% formic acid in water. A volume of 10 μL of each sample was injected into Waters 2695 Separations Module with a 2996 Photodiode Array Detector. Samples were run isocratically (35% acetonitrile and 65% 10 mM ammonium acetate with 0.1% formic acid in water) for 2 minutes. […] An average of 3 measurements was run for each treatment sample.
The HPLC results as reported in FIG. 2 are the average of 3 sample measurements.

The nature of series [5]: Sorbitol dehydrogenase enzyme activity (NADH production at 340 nm). The class given is biochemical. Conditions: for enzyme activity level: NAD^+ and sorbitol, absorbance readings at 340 nm at 5 min after the start of the reaction; for regeneration of NADH (NADH production, 0-36 min): vs no enzyme control and background A64. The text has this: To determine enzyme activity for sorbitol dehydrogenase in the production samples, reactions were set up with NAD^+, sorbitol and the sorbitol dehydrogenase enzyme collected in supernatant derived from the Bacillus subtilis A64 cultures. Absorbance at 340 nm was monitored with a BioTek SYNERGY HTX plate reader (BioTek Industries Inc.). […] The extinction coefficient of NADH at 340 nm (6220 M^−1 cm^−1) was used to estimate the enzyme activity of the sorbitol dehydrogenase enzyme. The enzyme activity was compared to commercially available sorbitol dehydrogenase enzyme produced from sheep liver (S-3764, Sigma-Aldrich).
NADH production was measured and reported as an average of 7 measurements and reported over a time series (0-36 min.) for the sorbitol dehydrogenase GutB (SDH GutB), the sorbitol dehydrogenase from sheep liver (SDH control) and compared to the A64 filtrate and no enzyme treatments both used as negative controls in the enzyme assay.

The subject of series [6] is lentil plants. Briefly: Lentil seeds coated with immobilized enzyme, grown in dicamba-containing soil. The class given is in vivo. The procedure:
For each treatment group, eighteen lentil seeds were coated with immobilized salicylate monooxygenase (SM, SEQ ID NO: 21) or hydroxyphenylacetate monooxygenase (HPAM, SEQ ID NO: 30), or with a water-only control (H2O) or a control containing only the particles used for immobilization, without any enzyme (“Particle Alone”). […] 50 ml of water was selected as this is the saturation point of this soil at this scale. Herbicides were allowed to sit in the soil for 24 hours before planting of coated seeds. Germination rate was measured at one week and root and shoot lengths were measured after two weeks.
Further data illustrating the protective effects of salicylate monooxygenase (SM) and hydroxyphenylacetate monooxygenase (HPAM) on lentil plants grown in dicamba-containing soil are provided in FIGS. 6-9. Lentil seeds were treated as described above with water alone, particle alone, or enzyme immobilized on a particle. […] Growth (shoot and root length) was measured at two weeks.

For series [7], the system named is soybean seedlings. In words: Spray of enzyme-treated dicamba solution onto soybean seedlings. The series is classed as in vivo. Conditions: 208 μM dicamba, immobilized enzyme, 30° C., soybean seedlings, one week. The procedure:
Salicylate monooxygenase (SM, SEQ ID NO: 21) and hydroxyphenylacetate monooxygenase (HPAM, SEQ ID NO: 30) were immobilized on particles. […] Aliquots (1 ml) were taken from incubated samples at 0 minutes, 10 minutes, 30 minutes, 1 hour, 5 hours, 24 hours and 30 hours after the introduction of SM and immediately frozen to stop the detoxification reaction. NADPH consumption was quantified by measuring loss of absorbance at 340 nm using a spectrophotometer. Results for SM are shown in panel A of FIG. 10 and results for HPAM are shown in panel A of FIG. 11. Consumption of NADPH is proportional to the degradation of dicamba.
Immediately after taking the absorbance measurements, the 1 ml aliquots were mixed with a nonionic organosilicone surfactant copolymer (0.1% SILWET L77) and 200 μL of the mixture was sprayed onto 2.5-week-old soybean seedlings (six plants per treatment group, on average). The use of the surfactant ensured even distribution of the solutions on the plants. Control plants were sprayed with water+surfactant alone or dicamba+surfactant alone. After one week, the degree of herbicide damage or the degree of protection from dicamba-induced injury (in plants treated with SM) was assessed visually.

`Cc1cc(Cl)ccc1OC(C)C(=O)[O-].[K+]` (racemic) [Mecoprop, Potassium (RS)-2-(2-methyl-4-chlorophenoxy)propionate, reference compound]: in series [1], the “Absorbance Maxima at Wavelength (λ) 230” value stood at 1.723, the “Absorbance Maxima at Wavelength (λ) 252” value turned out to be 0.2562 and the “Absorbance Maxima at Wavelength (λ) 280” value came to 1.214.

With `Cc1cc(Cl)ccc1OCC(=O)O` [MCPA-4-Amine, 2-methyl-4-chlorophenoxyacetic acid, reference compound], in series [2], the “Absorbance Maxima at Wavelength (λ) 230” value is 1.739, the “Absorbance Maxima at Wavelength (λ) 252” value worked out at 0.2573 and the “Absorbance Maxima at Wavelength (λ) 280” value was 1.506.

B1: SM1: salicylate monooxygenase from Bacillus cereus strain B377, amino acid SEQ ID NO: 251 (nucleotide SEQ ID NO: 243) (protein, listed as Bacillus cereus)
chain: MGKEKKYDAIVVGAGPVGLVAGLALQKKGISTLVIEADSFGRPRPGSRAIYLHSASLKLLEETSEGLGFTLAHNGIIWPVKRTFYKGKEVYVRDYGKDENLKFNRLPHFTALHQDEIEKHMYEACIKEGVEFLWDAPVKKLHITDSGVELTITNDEILKAQYVIGCDGARSIVREEAGLTFEGPRTADTFIVVDAKEDETDPLPLERIFHYQHPAMEGRNVMFVPFKGGWRIDLQLLESDNPDDYTNIESVKTWLPKVMDAKYAERITWVSSYRFHQVVANSFTDEKRRVLLAGEAAHLFAPFGARGLNSGIPDAVLAARGIEKALHSHSEEERVEAIEAAAKERRIAAQWNRDASTTALHHLQGSSPEMNMKRDIAASLVSIVPRLGRWLDEGPYGPKFGPPELTTKY
Turning to B1, the “average trifoliate damage score” value in series [3] is 2.8. Besides, in series [4] (HPLC, Time 2 hours), the “Percent Dicamba Concentration Relative to T0 control” value is recorded as 84.3%. In addition, the “dicamba concentration (HPLC)” value in series [4] (dicamba 100 ppm, 250 μL SM1 enzyme, 0.5 mM NADH, HEPES pH 7.0, 1 hour of incubation (FIG. 17)) was “decreased concentrations”. The “decrease in dicamba concentration (HPLC)” value in series [4] (dicamba 100 ppm, 250 μL SM1 enzyme, 0.5 mM NADH, HEPES pH 7.0, 2 hours of incubation (FIG. 17)) was “approximately 50%”.

B2: SDH control: commercially available sorbitol dehydrogenase enzyme produced from sheep liver (S-3764, Sigma-Aldrich) (protein, UniProt P07846 1-354, looked up)
Sorbitol dehydrogenase: AKPAAENLSLVVHGPGDLRLENYPIPEPGPNEVLLKMHSVGICGSDVHYWQGRIGDFVVKKPMVLGHEASGTVVKVGSLVRHLQPGDRVAIQPGAPRQTDEFCKIGRYNLSPTIFFCATPPDDGNLCRFYKHNANFCYKLPDNVTFEEGALIEPLSVGIHACRRAGVTLGNKVLVCGAGPIGLVNLLAAKAMGAAQVVVTDLSASRLSKAKEVGADFILEISNESPEEIAKKVEGLLGSKPEVTIECTGVETSIQAGIYATHSGGTLVLVGLGSEMTSVPLVHAATREVDIKGVFRYCNTWPMAISMLASKSVNVKPLVTHRFPLEKALEAFETSKKGLGLKVMIKCDPSDQNP
As to B2, in series [5], the enzyme activity level was 1447 U/mL and the “regeneration of NADH (NADH production, 0-36 min)” value is given as “greater regeneration of NADH”.

B3: GutB sorbitol dehydrogenase: sorbitol dehydrogenase from Bacillus subtilis strain 168, SEQ ID NO: 288, cofactor-regenerating enzyme (protein, listed as Bacillus subtilis)
chain: MTHTVPQNMKAAVMHNTREIKIETLPVPDINHDEVLIKVMAVGICGSDLHYYTNGRIGNYVVEKPFILGHECAGEIAAVGSSVDQFKVGDRVAVEPGVTCGRCEACKEGRYNLCPDVQFLATPPVDGAFVQYIKMRQDFVFLIPDSLSYEEAALIEPFSVGIHAAARTKLQPGSTIAIMGMGPVGLMAVAAAKAFGAGTIIVTDLEPLRLEAAKKMGATHIINIREQDALEEIKTITNDRGVDVAWETAGNPAALQSALASVRRGGKLAIVGLPSQNEIPLNVPFIADNEIDIYGIFRYANTYPKGIEFLASGIVDTKHLVTDQYSLEQTQDAMERALQFKNECLKVMVYPNR
B3: in series [5], the enzyme activity level stood at 207 U/mL and the “regeneration of NADH (NADH production, 0-36 min)” value was “sufficient ability to reduce NAD to NADH”.

B4: HPAM: hydroxyphenylacetate monooxygenase from Bacillus cereus BGSC 6E1, amino acid SEQ ID NO: 30 (protein, listed as Bacillus cereus)
chain: MAIRTGEQYIEGLRKRNPEIWIGGRKVTDVVNEDVFREPIIQIANLYDMQHNPEYQDKITHICEETGERVSNAFLVPRNYEDLKVRRELFEVWAKATYGLMGRTPDFLNVTVTSMASNSWFFEKFNPEWGANIKNYYKHIRDNDLFLTHAIINPQNDRSKASHQQEDETMHLGVVSETAEGMYVSGAKMLATLAPITDEVIIYSYPSFKPGDERHAISFAVPIDAPGLRILCREPMQDGKRSLFDHPLASRFEEMDALLVFHNVFIPWDKVFIYQSVEAGNQLYPKTGIGHQPAHQSGVRGLVKLSFAAEVAMKLADSIGVDGFLNVQNQLAELMQDVETIRALLQVAEYEYETNSYGEVIPARLPLDTIRSLLPKMYPRAIEIIQTIGAGGLLMSPTGADFMNPEIHDDMQKYYIGREGVSSEERVRLFKLAWDLCGEAFGQRLLQYERYYSGDPVRKMGMFYNAYKKQQTFSLVNNALQSSSSEGALS
As for B4, the germination rate result in series [6] (lentil seeds coated with immobilized enzyme, soil with dicamba 0.1× or […] label rate, one week, vs water and particle-alone controls) is reported as “positive effect”. Further, in series [6] (two-week-old lentil, soil with dicamba 0.1× label rate (0.588 mg/L), vs water only or particle only controls (FIG. 6, FIG. 8)), the shoot length entry is reported as “longer shoot lengths”. Moreover, the “incubation time of enzyme with dicamba giving plants equivalent to the water control” value in series [7] stood at 30 min.
